Target: acidic H8 loop of karyopherin β2 (KAPB2-H8)
Assay: turbidity (OD600) of liquid-liquid phase separation, critical salt concentration; 50 μM R-DPR peptide mixed with 50 μM KAPB2-H8 peptide in 10 mM HEPES pH 7.4 with 0 to 400 mM NaCl; droplets also imaged by confocal microscopy

Binder	critical salt concentration (NaCl at which the droplets disappeared)	NaCl concentration until which the droplets remained
PRPRPRPRPRPRPRPRPRPRPRPRPRPRPRPRPRPRPRPR [(PR)20]	250 mM	
GRGRGRGRGRGRGRGRGRGRGRGRGRGRGRGRGRGRGRGR [(GR)20]		300 mM

Source: publication PMC10275993
